B1: Connector enhancer of kinase suppressor of ras 2 (Homo sapiens), Q8WXI2 (parent)
chain: MALIMEPVSKWSPSQVVDWMKGLDDCLQQYIKNFEREKISGDQLLRITHQELEDLGVSRIGHQELILEAVDLLCALNYGLETENLKTLSHKLNASAKNLQNFITGRRRSGHYDGRTSRKLPNDFLTSVVDLIGAAKSLLAWLDRSPFAAVTDYSVTRNNVIQLCLELTTIVQQDCTVYETENKILHVCKTLSGVCDHIISLSSDPLVSQSAHLEVIQLANIKPSEGLGMYIKSTYDGLHVITGTTENSPADRCKKIHAGDEVIQVNHQTVVGWQLKNLVNALREDPSGVILTLKKRPQSMLTSAPALLKNMRWKPLALQPLIPRSPTSSVATPSSTISTPTKRDSSALQDLYIPPPPAEPYIPRDEKGNLPCEDLRGHMVGKPVHKGSESPNSFLDQEYRKRFNIVEEDTVLYCYEYEKGRSSSQGRRESTPTYGKLRPISMPVEYNWVGDYEDPNKMKRDSRRENSLLRYMSNEKIAQEEYMFQRNSKKDTGKKSKKKGDKSNSPTHYSLLPSLQMDALRQDIMGTPVPETTLYHTFQQSSLQHKSKKKNKGPIAGKSKRRISCKDLGRGDCEGWLWKKKDAKSYFSQKWKKYWFVLKDASLYWYINEEDEKAEGFISLPEFKIDRASECRKKYAFKACHPKIKSFYFAAEHLDDMNRWLNRINMLTAGYAERERIKQEQDYWSESDKEEADTPSTPKQDSPPPPYDTYPRPPSMSCASPYVEAKHSRLSSTETSQSQSSHEEFRQEVTGSSAVSPIRKTASQRRSWQDLIETPLTSSGLHYLQTLPLEDSVFSDSAAISPEHRRQSTLPTQKCHLQDHYGPYPLAESERMQVLNGNGGKPRSFTLPRDSGFNHCCLNAPVSACDPQDDVQPPEVEEEEEEEEEEGEAAGENIGEKSESREEKLGDSLQDLYRALEQASLSPLGEHRISTKMEYKLSFIKRCNDPVMNEKLHRLRILKSTLKAREGEVAIIDKVLDNPDLTSKEFQQWKQMYLDLFLDICQNTTSNDPLSISSEVDVITSSLAHTHSYIETHV
partner: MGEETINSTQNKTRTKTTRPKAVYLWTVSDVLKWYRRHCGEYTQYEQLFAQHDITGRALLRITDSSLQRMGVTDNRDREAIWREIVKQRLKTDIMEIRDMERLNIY
B2: Protein aveugle (Drosophila melanogaster (Fruit fly)), Q8ML92 (parent)
chain: B1 partner

Variants of: B1
Conditions: with ave_drome ave, Q8ML92

effect of a mutation on the interaction | Variant
disrupting interaction | E68R;D71R
decreasing interaction | D71R
decreasing interaction | I60A

Variants of: B2
Conditions: with cnkr2_human CNKSR2, Q8WXI2

effect of a mutation on the interaction | Variant
decreasing interaction | R57A;R61A
decreasing interaction | R61E
disrupting interaction | R57E;R61E

— IntAct's records for PubMed 18287031
